We go through 11 molecules from US20210230294A1 (Incyte, published 2021).

T1: recombinant human CD73 (SEQ ID NO:70) (human, UniProt P21589 27-549)
T1 construct: Soluble recombinant protein in normal SPR running buffer (open conformation), the soluble enzyme assay and HDX-MS; SPR stock bought from BPS Bioscience; also called rhuCD73; CD73 in the open conformation
T1 sequence: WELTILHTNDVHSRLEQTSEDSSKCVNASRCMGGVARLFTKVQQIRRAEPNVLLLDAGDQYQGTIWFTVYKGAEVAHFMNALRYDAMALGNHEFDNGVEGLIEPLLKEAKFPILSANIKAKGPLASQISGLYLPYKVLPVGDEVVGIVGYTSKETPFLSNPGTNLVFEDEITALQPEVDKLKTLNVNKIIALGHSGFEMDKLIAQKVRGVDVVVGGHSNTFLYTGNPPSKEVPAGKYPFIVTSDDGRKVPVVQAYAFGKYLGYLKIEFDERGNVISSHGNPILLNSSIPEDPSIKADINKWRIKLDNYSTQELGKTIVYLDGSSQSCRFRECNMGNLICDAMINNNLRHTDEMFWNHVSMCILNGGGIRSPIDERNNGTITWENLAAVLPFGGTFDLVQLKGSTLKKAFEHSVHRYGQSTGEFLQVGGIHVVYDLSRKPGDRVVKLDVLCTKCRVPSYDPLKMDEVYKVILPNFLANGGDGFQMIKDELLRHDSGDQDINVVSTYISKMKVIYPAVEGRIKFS

T2: cynomolgus CD73 (SEQ ID NO:72) (cynomolgus, UniProt P21589 27-549 (human entry))
T2 construct: Open conformation (normal SPR running buffer)
T2 chain: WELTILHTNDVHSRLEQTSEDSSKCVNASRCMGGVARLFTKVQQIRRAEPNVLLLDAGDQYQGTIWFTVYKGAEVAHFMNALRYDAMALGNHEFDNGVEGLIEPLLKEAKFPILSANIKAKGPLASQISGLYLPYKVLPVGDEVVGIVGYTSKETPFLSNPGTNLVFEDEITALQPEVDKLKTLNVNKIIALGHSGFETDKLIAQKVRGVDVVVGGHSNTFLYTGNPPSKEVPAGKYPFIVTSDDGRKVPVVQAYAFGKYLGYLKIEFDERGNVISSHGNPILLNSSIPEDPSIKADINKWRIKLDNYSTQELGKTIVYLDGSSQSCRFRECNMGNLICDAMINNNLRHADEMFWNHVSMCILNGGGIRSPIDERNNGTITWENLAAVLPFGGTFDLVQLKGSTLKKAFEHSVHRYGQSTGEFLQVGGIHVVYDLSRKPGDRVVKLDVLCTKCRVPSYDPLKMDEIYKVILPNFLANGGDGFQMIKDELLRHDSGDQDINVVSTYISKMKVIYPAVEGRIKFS

T3: mouse CD73 (SEQ ID NO:71) (mouse, UniProt Q61503 29-551)
T3 construct: Open conformation (normal SPR running buffer); also called Murine; murine CD73
T3 sequence: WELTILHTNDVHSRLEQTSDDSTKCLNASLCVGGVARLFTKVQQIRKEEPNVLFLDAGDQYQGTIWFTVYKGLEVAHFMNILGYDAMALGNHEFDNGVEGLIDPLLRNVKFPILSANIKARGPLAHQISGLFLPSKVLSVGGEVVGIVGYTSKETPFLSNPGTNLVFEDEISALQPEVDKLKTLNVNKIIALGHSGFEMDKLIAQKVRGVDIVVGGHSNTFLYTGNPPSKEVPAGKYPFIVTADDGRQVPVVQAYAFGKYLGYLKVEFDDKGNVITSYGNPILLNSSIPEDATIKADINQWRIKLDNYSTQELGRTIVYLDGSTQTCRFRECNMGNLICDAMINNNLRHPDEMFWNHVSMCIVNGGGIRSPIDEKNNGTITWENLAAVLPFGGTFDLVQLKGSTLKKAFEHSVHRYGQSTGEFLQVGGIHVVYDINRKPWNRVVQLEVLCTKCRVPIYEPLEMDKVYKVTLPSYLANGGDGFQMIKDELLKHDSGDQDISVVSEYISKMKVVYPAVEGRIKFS

B1: CL25_hu_8-4 (antibody, V domains shown)
VH: QVQLVQSGAEVKKPGASVKVSCKASGYTFTSYGLSWVRQATGQGLEWMGEIYPGSGNTYYNEKFKGRVTMTRNTSISTAYMELSSLRSEDTAVYYCARYDYLGSSYGFDYWGAGTTVTVSS
VL: DIQMTQSPSSLSASVGDRVTITCKASQDVSTAVAWYQQKPGKAPKLLLYSASYRYSGVPSRFSGSGSGTDYTLTISSLQPEDFATYYCQQHYNTPYTFGGGTKLEIK
notes: Humanized CL25 antibody; captured by anti-human Fc in SPR
B2: CL25_hu_10-4 (antibody, V domains shown)
VH: EVQLVQSGAEVKKPGESLKISCKGSGYTFTSYGLSWVRQMPGKGLEWMGEIYPGSGNTYYNEKFKGQVTISADKSISTAYLQWSSLKASDTAMYYCARYDYLGSSYGFDYWGAGTTVTVSS
VL: DIQMTQSPSSLSASVGDRVTITCKASQDVSTAVAWYQQKPGKAPKLLLYSASYRYSGVPSRFSGSGSGTDYTLTISSLQPEDFATYYCQQHYNTPYTFGGGTKLEIK
notes: Humanized CL25 antibody
B3: CL25_hu_9-6 (antibody, V domains shown)
VH: QVQLVQSGAEVKKPGSSVKVSCKASGYTFTSYGLSWVRQAPGQGLEWMGEIYPGSGNTYYNEKFKGRVTITADESTSTAYMELSSLRSEDTAVYYCARYDYLGSSYGFDYWGAGTTVTVSS
VL: AIRMTQSPSSFSASTGDRVTITCKASQDVSTAVAWYQQKPGKAPKLLIYSASYRYSGVPSRFSGSGSGTDFTLTISCLQSEDFATYYCQQHYNTPYTFGGGTKLEIK
notes: Humanized CL25 antibody
B4: CL25_hu_11-5 (antibody, V domains shown)
VH: QVQLVQSGAEVKKPGASVKVSCKASGYTFTSYGLSWVRQATGQGLEWMGEIYPGSGNTYYNEKFKGRVTMTANTSISTAYMELSSLRSEDTAVYYCARYDYLGSSYGFDYWGAGTTVTVSS
VL: DIVMTQSPDSLAVSLGERATINCKASQDVSTAVAWYQQKPGQPPKLLIYSASYRYSGVPDRFSGSGSGTDFTLTISSLQAEDVAVYYCQQHYNTPYTFGGGTKLEIK
notes: Humanized CL25 antibody
B5: CL25_hu_8-6 (antibody, V domains shown)
VH: QVQLVQSGAEVKKPGASVKVSCKASGYTFTSYGLSWVRQATGQGLEWMGEIYPGSGNTYYNEKFKGRVTMTRNTSISTAYMELSSLRSEDTAVYYCARYDYLGSSYGFDYWGAGTTVTVSS
VL: AIRMTQSPSSFSASTGDRVTITCKASQDVSTAVAWYQQKPGKAPKLLIYSASYRYSGVPSRFSGSGSGTDFTLTISCLQSEDFATYYCQQHYNTPYTFGGGTKLEIK
notes: Humanized CL25 antibody
B6: CL25_hu_10-6 (antibody, V domains shown)
VH: EVQLVQSGAEVKKPGESLKISCKGSGYTFTSYGLSWVRQMPGKGLEWMGEIYPGSGNTYYNEKFKGQVTISADKSISTAYLQWSSLKASDTAMYYCARYDYLGSSYGFDYWGAGTTVTVSS
VL: AIRMTQSPSSFSASTGDRVTITCKASQDVSTAVAWYQQKPGKAPKLLIYSASYRYSGVPSRFSGSGSGTDFTLTISCLQSEDFATYYCQQHYNTPYTFGGGTKLEIK
notes: Humanized CL25 antibody
B7: CL25_hu_9-4 (antibody, V domains shown)
VH: QVQLVQSGAEVKKPGSSVKVSCKASGYTFTSYGLSWVRQAPGQGLEWMGEIYPGSGNTYYNEKFKGRVTITADESTSTAYMELSSLRSEDTAVYYCARYDYLGSSYGFDYWGAGTTVTVSS
VL: DIQMTQSPSSLSASVGDRVTITCKASQDVSTAVAWYQQKPGKAPKLLLYSASYRYSGVPSRFSGSGSGTDYTLTISSLQPEDFATYYCQQHYNTPYTFGGGTKLEIK
notes: Humanized CL25 antibody
B8: CL25_hu_8-5 (antibody, V domains shown)
VH: QVQLVQSGAEVKKPGASVKVSCKASGYTFTSYGLSWVRQATGQGLEWMGEIYPGSGNTYYNEKFKGRVTMTRNTSISTAYMELSSLRSEDTAVYYCARYDYLGSSYGFDYWGAGTTVTVSS
VL: DIVMTQSPDSLAVSLGERATINCKASQDVSTAVAWYQQKPGQPPKLLIYSASYRYSGVPDRFSGSGSGTDFTLTISSLQAEDVAVYYCQQHYNTPYTFGGGTKLEIK
notes: Humanized CL25 antibody
B9: CL25_hu_11-6 (antibody, V domains shown)
VH: QVQLVQSGAEVKKPGASVKVSCKASGYTFTSYGLSWVRQATGQGLEWMGEIYPGSGNTYYNEKFKGRVTMTANTSISTAYMELSSLRSEDTAVYYCARYDYLGSSYGFDYWGAGTTVTVSS
VL: AIRMTQSPSSFSASTGDRVTITCKASQDVSTAVAWYQQKPGKAPKLLIYSASYRYSGVPSRFSGSGSGTDFTLTISCLQSEDFATYYCQQHYNTPYTFGGGTKLEIK
notes: Humanized CL25 antibody
B10: CL25_hu_9-5 (antibody, V domains shown)
VH: QVQLVQSGAEVKKPGSSVKVSCKASGYTFTSYGLSWVRQAPGQGLEWMGEIYPGSGNTYYNEKFKGRVTITADESTSTAYMELSSLRSEDTAVYYCARYDYLGSSYGFDYWGAGTTVTVSS
VL: DIVMTQSPDSLAVSLGERATINCKASQDVSTAVAWYQQKPGQPPKLLIYSASYRYSGVPDRFSGSGSGTDFTLTISSLQAEDVAVYYCQQHYNTPYTFGGGTKLEIK
notes: Humanized CL25 antibody
B11: HzCL25 (antibody, human IgG1, kappa, N297A, V domains shown)
VH: EVQLVQSGAEVKKPGESLKISCKGSGYTFTSYGLSWVRQMPGKGLEWMGEIYPGSGNTYYNEKFKGQVTISADKSISTAYLQWSSLKASDTAMYYCARYDYLGSSYGFDYWGAGTTVTVSS
VL: DIVMTQSPDSLAVSLGERATINCKASQDVSTAVAWYQQKPGQPPKLLIYSASYRYSGVPDRFSGSGSGTDFTLTISSLQAEDVAVYYCQQHYNTPYTFGGGTKLEIKR
notes: Humanized IgG1/kappa with N297A; also called humanized CL25

For the first assay, the target named is T1, recombinant human CD73 (SEQ ID NO:70). The experiment in a line: SPR (Biacore 8K), antibody captured on anti-human Fc, CD73 as analyte, open conformation. The protocol: (§1) The SPR running buffer (10 mM HEPES, 150 mM NaCl, 3 mM EDTA and 0.05% v/v Surfactant P20, pH 7.4) was prepared from 10×HBS-EP Buffer (GE Healthcare). Anti-human Fc antibodies (GE Healthcare) were immobilized via amine coupling on all sixteen flow cells of an S series sensor chip CM5 (GE Healthcare). The immobilization levels were ˜9000 RU for all flow cells. […] The non-cleavable ADP analogue APCP (adenosine-5′-(α,β-methylene) diphosphate) with the presence of Zn²⁺ can be used to shift the CD73 conformational equilibrium from open towards closed. Therefore, recombinant CD73 was incubated with SPR running buffer in the presence of 100 μM APCP and 10 μM ZnCl₂ (closed SPR running buffer) to study the binding of anti-CD73 antibody to the CD73 in the closed conformation. To achieve this, the ABA injection feature in Biacore 8K was used. For open conformation, the ABA injection sequence started with 60 seconds injection of running buffer. Then, CD73 3-fold serial dilution concentration series prepared from CD73 stock (BPS Bioscience) and running buffer were injected for 180 seconds immediately followed by running buffer for 240 seconds. For closed conformation, the normal SPR running buffer was replaced by closed SPR running buffer. Surface was regenerated with 30 seconds injection of 3 M MgCl₂.
On the technique in general: Surface plasmon resonance follows binding to a sensor surface in real time, without labels.
By Kd is commonly meant a measure of binding affinity in units of concentration. One may read the koff as a measure of how fast the partners let go of each other. As usually defined, the kon is the second-order rate constant of association. For the molecule B1, the Kd was 2.29 nM, the koff amounted to 0.00176 s⁻¹ and the kon came out at 770000 M⁻¹ s⁻¹.

Regarding B2, the Kd was 1.2 nM, the koff came to 0.00107 s⁻¹ and the kon was 887000 M⁻¹ s⁻¹.

Regarding B3, the Kd was found to be 2.25 nM, the koff amounted to 0.000953 s⁻¹ and the kon was determined as 424000 M⁻¹ s⁻¹.

For the molecule B4, the Kd was determined as 1.46 nM, the koff turned out to be 0.00117 s⁻¹ and the kon came to 799000 M⁻¹ s⁻¹.

In the case of B5, the Kd came out at 1.55 nM, the koff is 0.00111 s⁻¹ and the kon was 715000 M⁻¹ s⁻¹.

On to B6, for which the Kd was determined as 1.75 nM, the koff is 0.00092 s⁻¹ and the kon worked out at 524000 M⁻¹ s⁻¹.

Turning to B7, the dissociation constant (Kd) came out at 6.9 nM, the koff was found to be 0.00264 s⁻¹ and the kon is 382000 M⁻¹ s⁻¹.

For B8, the Kd came to 0.718 nM, the koff stood at 0.000949 s⁻¹ and the kon is above 1e+06 M⁻¹ s⁻¹.

For the molecule B9, the Kd was determined as 1.84 nM, the koff came to 0.00101 s⁻¹ and the kon came to 550000 M⁻¹ s⁻¹.

Take B10: the Kd came to 2.02 nM, the koff was 0.00114 s⁻¹ and the kon was 565000 M⁻¹ s⁻¹.

B11: the Kd is below 0.449 nM, the koff was determined as 0.000449 s⁻¹ and the kon is above 1e+06 M⁻¹ s⁻¹.

For a further assay, the target named is T2, cynomolgus CD73 (SEQ ID NO:72). The assay is described as above. The protocol:
as §1
With B11, the Kd is below 0.468 nM, the koff was 0.000468 s⁻¹ and the kon was above 1e+06 M⁻¹ s⁻¹.

For the next assay, the target named is T3, mouse CD73 (SEQ ID NO:71). Described as above. The protocol: as §1
Consider B11, for which the binding result was “no binding”.
